Source: the nanobody polyreactivity screen of Harvey et al. (2022)

Test: yeast display, Sf9 membrane polyspecificity reagent, FACS + sequencing; frameworks hold sequencing errors
Summary of the method: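 Sorting gates, low and high (top ~1%), were placed on anti-HA fluorescence to track expression and on streptavidin fluorescence to track reagent binding. A clone's polyreactivity label is taken from the gate it came out of. The reagent was 10% biotinylated, detergent-solubilized Sf9 membrane, applied for 1 hour at 4 °C to galactose-induced yeast display cells.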

| Sequence | polyreactivity (PSR sort gate) |
| --- | --- |
| KVQLVESGSGFVQAGGSLGLSCAASGSIFRGYAMGWYRQAPGKERELVAAISWSGGTTYYADSVKGRLTISRDNEKNTFYLQMNSLKPEDTAVYYCAADTTVTITSKYNYWVQGTQVTVSS | low polyreactivity |
| LVQLQESGGGLVQAGGSLRLSCAASGTISPGGYMGWYRQAPGKERELVASINVGGSTNYADSVKGRFTISRDNAKNTVYLQMKSLKPEDNAVYYCAVWGRNRLQLSYWGQGTQVTVSS | low polyreactivity |
| LVQLVESGGGLVQAGGSLRLSCAASGFIFGYYAMGWYRQAPGKERELVAASTRSGGSTRYADSVKGRFTISRDKAKNTVYLQMNSLKPEDSAVYYCAADSCPINLYEDYWGQGTQVTVSS | high polyreactivity |
| LVQLVESGGGLVQAGGSLRLSCAASGFTFPDYAMGWYRPAPGKERELVAAISSDGSTYYADSVKGRFTISRDNAKNTVYLQMNSLKPEDTAVYYCAAYVVWLYGYDYWGQGTQVTVSS | low polyreactivity |
| LVQLVESGGGLVQAGGSLRLSCAASGSTFGYNAMGWYRQAPGKERELVAAISRGAGSTYYADSVKGRFTITRDNAKYTVYLQMNCLKPEDTAVYYCAKERPRGAPAYYSRIYDYWGQGTQVTVSS | high polyreactivity |
| LVQLVESGGGLVQAGGSLRLSCAASGSTFSVNALGWYRQAPGNERELVAAITYSGGSTYYADSVKGRFTISRDTAKNTVYLQMNSLKPEDTAVYYCATRVWFYKSRGGYRERDYWGQGTQVTVSS | high polyreactivity |
| LVQLVESGGGLVQAGGSLRLSCAASGSTSRKYTMGWYRQSPGKERELVARITSSGSSTYYADSVKGRFTISRDTAKNTVYLQMNSLKAEDTADYYCNARAHSDRKSSYIYLPYSYDYWGQGTQVTVSS | high polyreactivity |
| LVQLVESGGGLVQAGGSLRLSFAASGLIFGRYAMGWYTQAPGKERELVAAISSSGVRTYYADSVKGRFTLSRDNAKNTVYLQLNSLKPEDTAVYYCAAAYWSSPEDTVIKRYYWGQGTQVTVSS | high polyreactivity |
| LVQLVESGRGLVQAGGSLRLSCAASGSTFRINAMGWYRQAPGKERELVADINSGGNTTYADSVKGRFTISRDNAKNTVYLQMKSLIPEDTAVSYCAADPVFDLWEFLLDYGYDYWGQGSQVTVSS | low polyreactivity |
| LVQLVQSGGGLVQAGGSLRLSCAASGLTFDYYAKGWYRQAPGKERELVAVISSGGSTYYADSVKGRITISRDNAKNTVYLQMNSLKTEDTAVYYCAAEIYRYRLRDEYDYWGQGTQVTVSS | low polyreactivity |
| NVQLVESGGGLVQAGGSLRLSCAASGGIFYRYAMGWYRQAPGKEWELVATISRRGGRTYYADSVKGRFTISRDNEKNTVYLQMNSLKPEDTAVYYCAADEWQSGHCLEDDYWGQGTQVTVSS | high polyreactivity |
| NVQLVESGGGLVQAGGSLRLSCAASGRTFNGYAMGWYRQAPGKERDLVASISWSGGRTYYADSVKGRFTISRDNAKNTVYLQMNSLKPEDTAVYYCAATFVNVVGYDYWGQGTQVTVSS | high polyreactivity |
| PDQLVESGGGLVQAGGSLRLSCAASGRIFGTNAMGWYRQAPGKERELVADITSGGSTNYADSVKGRFTISRDNAKNTVYLQMNSLKPEDTAVYYCAADVIGDLRWYRDEYWGQGTQVTVSS | low polyreactivity |
| PDQLVESGGGLVQAGGSLRLSCAASGRTFSGYGMGWYRQAPGKERELVAAFSSSGDSTYYADSVKGRFSIARDNPKNTVYVQMNSLKPDDPAVYYCNDYRRSYNGFRYYYWGQGTQVTVSS | low polyreactivity |
| PVQLLESGRGLVQAGGRLRLSCAASGINFKYNAMGWYRQAPGKERELVAAISWRGGSTYYADSVKGRFTISRDNAKNTVSLQMNSLKPEDTAVYSCAANLAGSSYYDWGQGTQVTVSS | low polyreactivity |
| PVQLQESGGGLVQAGRSLRMSSAASGNIFDADIMGWYRQAPGKERELVACIADGGSTNYADSVKGRFTISRDNAKYTVYLQMNSLKPEDTAVYYCAAIAYPDIPTCFDYDSDYFFRGQGTQVTVSS | low polyreactivity |
| PVQLVESGGGLVQAGGSLRLSCAASGFISQDNAMGWYRQAPAKERELVATISGSGGITYYADSVKGRFTISRANAKTTVYVQMNSLKPEDTAVYYCNNEISYLSWGYDYWGQGTQVTVSS | low polyreactivity |
| PVQLVESGGGLVQAGGSLRLSCAASGFTFSYYAMGWYRQAPGQEWELVAGIDDSCGSTYYADSVKGRFTISRDNAKNTVELQMNSLKPEDTAFYYCNAVYARKYYYSHGYDYWGQGTQVTVSS | high polyreactivity |
| PVQLVESGGGLVQAGGSLRLSCAASGIIFYDYAMGWYRQAPGKERELGATITSGGSTNYADSVKGRFTISRDNAKNTVYLQLNSLKPEDTAVYYCAAGRGLILGGVYGYDYWGQGTQVTVSS | low polyreactivity |
| PVQLVESGGGLVQAGGSLRLSCAASGIIFYRNAMAWYRQAPGKERELVAAITSSGGRTYYAYSVKGRFTISRDNAKNTVYLQMNRLKPEDTAVYYCAATRLYWKIFYGDGDYWGQGTQVTVSS | high polyreactivity |
| PVQLVESGGGLVQAGGSLRLSCAASGRIFAYYAMGWYRQATGKERELVAAITRRGSTNYADSVKGRFTISGDNAKNTVYLQMNSLKQEVTAFYYCAARDAIYGSDYWGQGTQVNVSS | high polyreactivity |
| PVQLVESGGGLVQAGGSLRLSCAASGRTFNSYPMVWYRQAPGKERELVADITSSGGSTYADSVKGRFTISRDNAKNTVYLQMNSLKPEDTAVYYCAVDNISNWAVENDYWGQGTQVTVSS | low polyreactivity |

| Sequence | polyreactivity (PSR sort gate) |
| --- | --- |
| PVQLVESGGGLVQAGGSLRLSCAASGRTYYTNAIGWYRQAAGNVRELVAAITGDGTSTYYADSVKGRFTMSRDNATYTVFLQINSLKPEDTAVYYCAATGGDRYEAYSYWGQGTQVTVSS | low polyreactivity |
| PVQLVESGGGLVQAGGSLRLSCAASGSIFFGYAMGWYRQAPGKERELVAAFNGSVITSYADSVKGRFTISRDNAKNPVYVQMNSLKPEDTAYYCNTGSTWGAVIANYDHWGQGTQVTVSS | low polyreactivity |
| PVQLVESGGGLVQAGGSLRLSCACSGRIFIYNSMGWYRQATGKEREFVAAISSSGGSTYYADSVKGRFTISRDNAKNTVYLHLNSLKPEDTAVYYCAAGGWPYSGGWFFQPNYYYWGQGTQVTVSS | low polyreactivity |
| PVQLVESGGGLVQAGGSLRLSCADSGNIFTYNAMGWSRPEPGTERELVAGITSAGGTYYADSVKGRFTISRDNAKNSVYLQMNSLKPEDTAVYYWNVDYDNDTVRGDKIGYSYEYWGHGTQVTVSS | low polyreactivity |
| PVQLVESGGGLVQAGGSLRLSCPASGRILVGNAMGWYRQAPGKERELVAALTSSGDSTNYADSVKGRFTISRDNAKNTVYLQMNSLKPEDTAVYYCAAGSFGTSGFSDVIWEGDYWGQGTQVTVSS | low polyreactivity |
| PVQLVESGGGLVQAGGSLSLTCAASGFIFYDYAMRWYRPAPGKERELVAGITSSGTSTYYADSVKGRFTISRDNAKNTVYLQMNSLKPEDTSVYYFNKAPSWWDVRVPFDYWGQGTQVTVSS | low polyreactivity |
| PVQLVESGGRLVQEGGSLRLICAASARIFPYYSMGWSRPAPGKERELVAAITTSGCRTYYADSVKGRFTISRDNAKYSVYLLMNSMKPEYTAVYVCNKYARGYDMDYWGQGTQVTVSS | high polyreactivity |
| QAELVESGGGLVQAGGSLRLSCAASGLTFRAYAMGGYRQAPGKERELVAAISWNGGSTYYADSVKGRFTISRDNAKNTVYLQMNCLKPEDTAVYYCNAYDYQYFYGYEYDYWGQGTQVTVSS | high polyreactivity |
| QAQLQESGGGLVQADGSLRLCCAASGSIFQTIYMGWYRQAPGKERELVASIDIGANTDYAVSVKGRFTISRDNAKNSVYLQMHSLKPEDTAVYYCAARYSRGRLLVSRGNYWGQGTQVTVSS | high polyreactivity |
| QAQLVESGGGLVQAGGSLRLSCAASGYTFTANVMGWYRQAPGKERELVAAISWSGTSTSYADSVKGRFTISRDNAKNNVYLQMNSLKPEDTAVYYCNTVPYYTGSNGYWGQGTQVTVSS | low polyreactivity |
| QAQLVETGGGLVQAGGSRRLSCAASGRTYKGYVMGWYRQAPGKEREFVAVITRDGGSTYYAVSVKGRFTISRDNAKNTVYLEMKSLKPEDTEVYYCASTYYPVAGEYDYWGQGTKVTVSS | low polyreactivity |
| QAQSVESGGGLVQAGGSLRLICAASGITFGNYAMGWYRQAPGKERALVASISWNVGSTYYADSVKGRFTISRDNAKNTVYLQMNSLKPEDTSVYYCARGYDRPRVATFHRFDYWGQGTQVTVSS | low polyreactivity |
| QDHLVDSGGGLVQAGGSLRLSCDASGRIFRWYTMGWYRQAPGKERELVATITSSGITSYADSVKGRFTISRDNAKNTDYLQMNSLKPEDTAVYYCAADHYYYIHGYDYWGQGTQVTVSS | high polyreactivity |
| QDHLVESAAGLVQAGGRLRLSCAASGSTLYDYAMVWSRKAPGKDRELVAAIRTGGSTYYADSVKGRFTISRDNAKNTVYLQMNSLKTEDTAVYYCAADHGYQYGYWGQGTQVTVSS | low polyreactivity |
| QDHLVESGGGLVEARGSLRLSCAASGFIFRGYAMGWYRQAPGKERELVAAINSGGSTNYADSVKGRFTISRDNAKNTVYLQMNSLKPEDSAVYYCAARWRSWRYKDDYWGQGSQVTVSS | high polyreactivity |
| QDHLVESGGGLVQAGGSLRLSCAASGNIIWWNAMGWYRQAPGKERELVAAITSDSTTYYADSVKGRFTISRDNAKNTVYLQLNSLKPEDTAVYYCAAYSYGGQGVDYGYWGQGTQVTVSS | low polyreactivity |
| QDHLVESGGGLVQAGGSLRLSCAASGRIFTPNAMGWYRQAPGKERELVAAITSGGSTNYADSVKGRFTISRDNAKNTVYLQMNSLKPQDTAVYYCAVRYYYCSKKRNYWGQGTHVTVSS | high polyreactivity |
| QDHLVESGGGLVQAGGTLRLSCAASGRIFVGYAMGWYRQAPGKERELVAGISRSGDSTYYADSVKGRFTISRDNAKNTVYLQMNSLKPEDTAVYYCAASWYKNQTRYYYWGQGTQVTVSS | high polyreactivity |
| QDHLVESGVGLVQAGGSLRLSCAASGFAFWTYTMGWYRQAPGKERELVATITRGGRTKYADSVKGRFTISRDNAKNTVYLQMNSLKPEDTAVYYCAAARRRTGVRMDYWGLGTQVTVSS | high polyreactivity |
| QDLLVESGGGLVQAGGSLGLSCAASGRIFSIYAMGWYRLAPGKERELVAAITRGGRTNYADSVKGRFTISRDNAKNTDYLQMISLKPEDTAVYYCADRLIDGVVKPYDYWGQGTQVTVSS | low polyreactivity |
| QDPHVESGGGIVQAGGSISLRCSASGSTYAKKAMVRYRKAPGKEKELFADISASGGSTYYADSVKGRFTISRDIAKNSVYLQMYSLKPEETSVYYWAKSSYLTRGSRYDYWGQGTQVTLSS | low polyreactivity |
